B1: 2G7 HMGB1 mAb (antibody, V domains shown)
VH: QVQLQQSGAELVRPGSSVKISCKASGYAFSSYWMNWVKQRPGQGLEWIGQIYPGDGDTNYNGKFKGKATLTSDKSSSTAYMQLSSLTSEDSAVYFCARREPYGSYVGFGFWGQGTLVTVSA
VL: ENVLTQSPAIMSASPGEKVTMTCSASSSVSYMHWYQQKSSTSPKLWIYDTSKLASGVPGRFSGSGSGNSYSLTISSMEAEDVATYYCFQGSGYPPTFGGGTKLEIK
notes: Murine hybridoma monoclonal antibody (ATCC PTA-5432); also called 3-2G7-1-1-1; CT3-2G7
B2: peptide corresponding to amino acid residues 46-63 of human HMGB1 (peptide)
peptide: SERWKTMSAKEKGKFEDM
modifications: also: biotinylated (position not given here)
notes: also called HMGB1 46-63 peptide; huHMGB1-46-63-B
B4: peptide corresponding to amino acid residues 61-78 of human HMGB1 (peptide)
peptide: EDMAKADKARYEREMKTY
modifications: also: biotinylated (position not given here)
notes: also called HMGB1 61-78 peptide; huHMGB1-61-78-B
B5: peptide corresponding to amino acid residues 151-168 of human HMGB1 (peptide)
peptide: LKEKYEKDIAAYRAKGKP
modifications: also: biotinylated (position not given here)
B6: 2E11 HMGB1 mAb (antibody, V domains shown)
VH: QVQLQQSGPELVRPGTSVKISCKTSGYTFLTYWMNWVKQRPGQGLEWIGQIFPASDNTYYNEMFKDKATLTVDTSSSTAYIHLSSLTSEDTAVYFCAREDSMDYWGQGTSVTVSS
VL: DIQMTQTTSSLSASLGDRVTVSCSASRGINNYLNWYQQKPDGTVKFLIYYTSSLHSGVPSRFSGSGSGTDYSLTISNLEPEDIATYYCQQYSKLPWTFGGGTKLEFK
notes: Murine hybridoma monoclonal antibody (ATCC PTA-5431); also called 2E111-1-1-2; CT3-2E11

Test [1] has as its target B2. Description: peptide ELISA (FIG. 13B). On the procedure: (§1) Biotinylated peptides bound to React-Bind Streptavidin-Coated Plates (Pierce, Rockford, Ill., Catalog # 15501) and non-biotinylated peptides bound to poly-D-lysine coated ELISA plates were used in anti-peptide ELISAs. Biotinylated peptides corresponding to particular 18 amino acid regions of human HMGB1, as well as a longer peptide corresponding to amino acid residues 9-85 of human HMGB1, were prepared and analyzed for binding to particular anti-HMGB1 monoclonal antibodies by ELISA. These peptides, and their respective sequences, are depicted in FIG. 13A. Poly-D-lysine coated plates were prepared by adding 60-100 μl/well of 0.1 mg/ml solution of poly-D-lysine in water. Plates were then incubated at room temperature for 5 minutes and were rinsed with water to remove the solution.
(§2) Briefly, using the molecular weight of the respective peptide, 1 mM peptide solutions were prepared in pyrogen-free water and diluted in 1× phosphate buffered saline. Plate wells were washed three times with 200 μl of PBS and 100 μl of the various peptide solutions were added to designated wells. The plates were then covered and incubated for 60 minutes at room temperature. The wells were then washed three times with PBS, 0.05% polyoxyethylenesorbitan (referred to herein as Tween 20™) using a volume greater than 100 μl. 200 μl of blocking buffer (5% nonfat dry milk in PBS, 0.05% Tween 20™) was added to each of the wells. The plates were covered and incubated for 60 minutes at room temperature. The wells were then washed three times with PBS, 0.05% Tween 20™ using a volume greater than 100 μl.
For orientation: An ELISA detects its analyte on a solid surface through an enzyme-linked reagent.

Another test concerns the target T1, CHO HMGB2 (Chinese hamster (CHO cells), UniProt A0A8C2QD03 1-210).
T1 construct: also called non-recombinant (natural) HMGB2 from Chinese Hamster Ovary (CHO) cells
T1 sequence: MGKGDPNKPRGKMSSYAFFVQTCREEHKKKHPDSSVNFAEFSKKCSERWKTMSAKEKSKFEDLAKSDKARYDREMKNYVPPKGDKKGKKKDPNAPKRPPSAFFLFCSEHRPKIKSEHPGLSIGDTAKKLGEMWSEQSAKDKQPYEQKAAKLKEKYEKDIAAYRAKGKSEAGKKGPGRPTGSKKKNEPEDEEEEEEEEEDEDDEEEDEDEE
Description: Western blot. In general terms: In western blotting, separated proteins are transferred to a membrane and probed.

Test [2] concerns the target T2, peptide corresponding to amino acid residues 53-70 of human HMGB1 (human).
T2 construct: Non-biotinylated; also called HMGB1 53-70 peptide; huHMGB1-53-70
T2 peptide: SAKEKGKFEDMAKADKAR
Nature of the test: peptide ELISA (FIGS. 22 and 23). On the procedure: as §1
(§3) Briefly, using the molecular weight of the respective peptide, 1 mM peptide solutions were prepared in pyrogen-free water and diluted in 1× phosphate buffered saline. Plate wells were washed three times with 200 μl of PBS and 100 μl of the various peptide solutions were added to designated wells. The plates were then covered and incubated for 60 minutes at room temperature. The wells were then washed three times with PBS, 0.05% polyoxyethylenesorbitan (referred to herein as Tween 20™) using a volume greater than 100 μl. […]

For a further test, the target named is T3, recombinant rat HMGB1 (rat, UniProt P63159 1-215).
T3 sequence: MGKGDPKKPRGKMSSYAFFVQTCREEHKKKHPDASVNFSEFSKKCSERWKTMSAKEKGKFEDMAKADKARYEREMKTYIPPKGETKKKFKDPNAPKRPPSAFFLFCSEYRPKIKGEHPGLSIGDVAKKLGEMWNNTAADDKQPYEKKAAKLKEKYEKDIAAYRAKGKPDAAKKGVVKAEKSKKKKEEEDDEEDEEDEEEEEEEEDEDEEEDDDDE
Nature of the test: sandwich ELISA, mAb as capture antibody, polyclonal antibody or 6E6 as detector. On the procedure:
In the first method, ELISA plates were coated with a number of purified anti-HMGB1 mAbs (e.g., 2E11 HMGB1 mAb, 2G5 HMGB1 mAb, 2G7 HMGB1 mAb, 6E6 HMGB1 mAb), and incubated overnight at 4° C. The plates were then blocked with PBS, 1% BSA for one hour at 37° C. After washing, recombinant rat HMGB1 was added at the indicated concentrations, and the plates were incubated at room temperature for 1 hour. The plates were then washed and incubated with rabbit polyclonal antibodies against HMGB1 at 2 μg/ml (see U.S. Pat. Nos. 6,303,321, 6,448,223 and 6,468,533). After 1 hour at room temperature, the plates were washed and incubated for 30 minutes with goat anti-rabbit Ig-HPR (Jackson ImmunoResearch Laboratories, West Grove, Pa.) diluted at 1:1000 in PBS. After washing, the plates were developed with TMB (Invitrogen, San Diego, Calif.) and absorbance at 655 nm was measured using a plate reader.
As depicted in FIGS. 14 and 15, two different ELISA methods were used to examine the properties of particular anti-HMGB1 monoclonal antibodies. In one method, HMGB1 monoclonal antibodies 2E11 HMGB1 mAb, 2G5 HMGB1 mAb, 2G7 HMGB1 mAb, and 6E6 HMGB1 mAb, were used as capture antibodies and a polyclonal HMGB1 antibody was used as the detector antibody. […]

Test [3] has as its target T4, peptide corresponding to amino acid residues 46-63 of human HMGB2 (human, also: biotinylated (position not given here)).
T4 construct: also called HMGB2 46-63 peptide; huHMGB2-46-63-B
T4 peptide: SERWKTMSAKEKSKFEDM
Description: peptide ELISA.

The target in test [4] is T5, peptide corresponding to amino acid residues 40-57 of human HMGB1 (human).
T5 construct: Non-biotinylated; also called HMGB1 40-57 peptide; Human HMGB1-40-57
T5 peptide: EFSKKCSERWKTMSAKEK
Description: peptide ELISA.

In test [5] the target is T6, peptide consisting of a scrambled sequence of amino acid residues 46-63 of human HMGB1.
T6 construct: Non-biotinylated; scrambled control; also called Human HMGB1-46-63-scr
T6 peptide: RMKEESSAKDGWFTEMKK
Nature of the test: peptide ELISA.

The target in test [6] is B1. Description: competition ELISA: peptide (0.33-243 µM) with 2 µg/ml antibody, plate coated with recombinant rat HMGB1. On the procedure: (§4) HMGB1 peptide binding experiments using 2G7 HMGB1 mAb were conducted. As described, biotinylated synthetic peptides corresponding to either amino acid residues 46-63 of human HMGB1 or amino acid residues 61-78 of human HMGB1 were prepared and analyzed for binding to 2G7 HMGB1 mAb (2G7) by ELISA. Briefly, 2 μg/ml of 2G7 HMGB1 mAb was added to plate wells containing either the HMGB1 46-63 peptide or the HMGB1 61-78 peptide at each of the indicated concentrations (0, 0.33, 1, 3, 9, 27, 81 and 243 μM peptide) for one hour at 25° C. to prepare antibody-peptide samples. ELISA plates were coated with 10 μg/ml of recombinant rat HMGB1, and incubated overnight at 4° C. The plates were then blocked with reconstituted milk for one hour at 37° C. Antibody-peptide samples were then added at the concentrations listed above and incubated for one hour at room temperature. The plates were then washed and incubated with Streptavidin-HRP. After washing, the plates were developed with TMB (Invitrogen, San Diego, Calif.) and absorbance at 655 nm was measured using a plate reader.

In test [7] the target is B6. Description: competition ELISA: peptide in solution against plate-bound HMGB1.
The target of test [8] is B4. Nature of the test: peptide ELISA (FIG. 13B). Here is the method: as §1, §2
For test [9], the target named is T2, peptide corresponding to amino acid …. Description: peptide ELISA.
Test [10] addresses T7, peptide consisting of a scrambled sequence of amino acid residues 61-78 of human HMGB1.
T7 construct: Non-biotinylated; scrambled control; also called Human HMGB1-61-78_scr
T7 peptide: AKDYMEARKDTEYKMARE
Nature of the test: peptide ELISA.

Test [11] has as its target T8, peptide corresponding to amino acid residues 67-84 of human HMGB1 (human).
T8 construct: Non-biotinylated; also called HMGB1 67-84 peptide; Human HMGB1-67-84
T8 peptide: DKARYEREMKTYIPPKGE
Nature of the test: peptide ELISA (FIG. 24). Here is the method: as §1, §3

Test [12] addresses B1. Nature of the test: competition ELISA: peptide in solution against plate-bound recombinant rat HMGB1. On the procedure:
as §4

For test [13], the target named is B6. Description: competition ELISA: peptide in solution with the antibody, plate-bound HMGB1.
In test [14] the target is B5. Nature of the test: peptide ELISA (FIG. 13B). On the procedure:
as §1, §2

For test [15], the target named is T9, peptide corresponding to amino acid residues 143-160 of human HMGB1 (human).
T9 construct: Non-biotinylated
T9 peptide: PYEKKAAKLKEKYEKDIA
Description: peptide ELISA.

Test [16] deals with T10, peptide corresponding to amino acid residues 157-174 of human HMGB1 (human).
T10 construct: Non-biotinylated; also called HMGB1 157-174 peptide; Human HMGB1-157-174
T10 peptide: KDIAAYRAKGKPDAAKKG
Description: peptide ELISA.

Where no end group is shown, it is not given here.

Take B1: the binding result in test [1] is “binds”; in the test with CHO HMGB2, “no binding (tested: 2 µg/ml antibody)”; in test [2], “binds”; with recombinant rat HMGB1, “binds”; in test [3] it was “no binding (tested: 2 µg/ml antibody)”; in [4], “no binding (tested: 2 µg/ml antibody)”. Besides, the binding result in test [5] is recorded as “no binding (tested: 2 µg/ml antibody)”.
On to B2, for which the binding result with 2G7 HMGB1 mAb [6] was “binds”; with 2E11 HMGB1 mAb [7] it was “no binding”.

B3: 6E6 HMGB1 mAb (antibody, V domains shown)
VH: EVQLQQSGAELVKPGASVKLSCTASGFNIKDTYMHWVKQRPEQGLEWIGRIDPANGNTKYDPKFQGKATITADTSSNTAYLQLSSLTSEDTAVYYCARGAYWGQGTLVTVSA
VL: DIVLTQSPASLAVSLGQRATISCKASQSVDYDGDSYMNWYQQKPGQPPKLLIYAASNLESGIPARFSGSGSGTDFTLNIHPVEEEDAATYYCQQSNEDPFTFGSGTKLEIK
notes: Murine hybridoma monoclonal antibody (ATCC PTA-5433); also called 6E6-7-1-1; CT3-6E6
For B3, the binding result is “binds” in test [8]; “binds” in the test with recombinant rat HMGB1; “no binding (tested: 2 µg/ml antibody)” in test [9]; “no binding (tested: 2 µg/ml antibody)” in test [10]; “binds” in test [11].
With B4, the binding result with 2G7 HMGB1 mAb [12] is listed as “no binding (tested: up to 243 µM peptide)”.
Take B5: the binding result with 2E11 HMGB1 mAb [13] is given as “binds”.
For the molecule B6, the binding result in test [14] is recorded as “binds”; in test [15], “no binding (tested: 2 µg/ml antibody)”; in test [16], “no binding (tested: 2 µg/ml antibody)”.

Source of the values: patent publication US20050152903A1 (CRITICAL THERAPEUTICS, published 2005).
